Assay results reported in US7326551B2, “Cloning and sequencing of pyruvate decarboxylase (PDC) genes from bacteria and uses therefor” (University of Florida Research Foundation, Inc., priority 2001, dated 2008).

Experiments:
Test in all cases: PDC activity by ADH-coupled assay, kinetic parameters for pyruvate
[1] = substrate: CC(=O)C(=O)O; assay type: biochemical, Acetobacter pasteurianus; settings: other: ApaPDC
Text: (ii) Purification of A. pasteurianus PDC—PDC was purified from A. pasteurianus and E. coli ER1648(pJAM304) using heat-treatment, Q-Sepharose, Superdex 200, and hydroxyapatite as described for the Z. palmae PDC with the following modifications. Cells were passed through a French pressure cell at 30,000 lb per in^2. The PDC activity, which was eluted at 0.17 to 0.26 M NaCl from the Q-Sepharose column, was pooled and concentrated by dialysis against PEG8000 prior to loading onto the Superdex 200 column.
(§1) PDC Quantitation and Enzyme Activity Assay—Polypeptide concentration was determined using Bradford reagent with bovine serum albumin as the standard (BioRad). PDC activity was measured by the coupled assay with baker's yeast alcohol dehydrogenase (ADH) (Sigma-Aldrich, St. Louis, Mo.) as previously described (11). The reaction mixture contained 0.15 mM NADH, 5 mM MgCl2, 0.1 mM TPP, 5 mM pyruvate, and 10 U ADH in 50 mM sodium citrate buffer at pH 5.0 and was measured at 25° C. unless otherwise indicated. One unit of enzyme activity is defined as the amount of enzyme that generates 1 μmol of acetaldehyde per min.
(§2) As a further comparison, the kinetic constants of all four bacterial PDC polypeptides were determined at their pH optimum as well as at pH 7.0 (Table 3). […]

[2] = substrate: CC(=O)C(=O)O; assay type: biochemical, Zymomonas mobilis; settings: other: ZmoPDC
Description: All procedures were performed at room temperature and all purification buffers contained 1 mM TPP and 1 mM MgCl2 unless otherwise indicated. S. ventriculi PDC was purified from recombinant E. coli BL21-CodonPlus-RIL(pJAM419) and Rosetta (DE3)(pRARE, pJAM419) as previously described (45). Z. mobilis PDC was purified from recombinant E. coli DH5α (pLOI276) (11) using thermal treatment, Q-Sepharose, and Superdex 200 procedures as described below for the Z. palmae PDC with the exception that the Z. mobilis PDC was eluted from Q-Sepharose at 0.22 to 0.32 M NaCl.
as §1, §2

[3] = substrate: CC(=O)C(=O)O; assay type: biochemical, Zymobacter palmae; settings: other: ZpaPDC
Description: (i) Purification of Z. palmae PDC—Z. palmae and E. coli DH5α (pJAM3440) cells were grown to stationary phase and harvested by centrifugation at 10,000×g (10 min, 4° C.). Cells (12 to 15 g wet wt) were resuspended in 6 volumes of 50 mM sodium phosphate buffer at pH 6.5 containing 1 mM TPP and 1 mM MgCl2 (buffer A) and passed through a chilled French pressure cell at 20,000 lb per in^2. Cell debris was removed by centrifugation at 16,000×g (20 min, 4° C.). Cell lysate was heated to 60° C. for 30 min, chilled on ice for 15 min, and centrifuged at 16,000×g (30 min at 4° C.) to remove denatured polypeptides. […]
as §1, with “One unit of enzyme activity is defined as the amount of enzyme that generates 1 μmol of acetaldehyde per min.” left out
as §2

[4] = pH 7.0, normal Michaelis-Menten kinetics, pH 7.0, 25.0 °C

B1: Acetobacter pasteurianus pyruvate decarboxylase (ApaPDC), recombinant, wild type, SEQ ID NO:4 (Acetobacter pasteurianus) (protein)
chain: MTYTVGMYLAERLVQIGLKHHFAVGGDYNLVLLDQLLLNKDMKQIYCCNELNCGFSAEGYARSNGAAAAVVTFSVGAISAMNALGGAYAENLPVILISGAPNSNDQGTGHILHHTIGKTDYSYQLEMARQVTCAAESITDAHSAPAKIDHVIRTALRERKPAYLDIACNIASEPCVRPGPVSSLLSEPEIDHTSLKAAVDATVALLKNRPAPVMLLGSKLRAANALAATETLADKLQCAVTIMAAAKGFFPEDHAGFRGLYWGEVSNPGVQELVETSDALLCIAPVFNDYSTVGWSGMPKGPNVILAEPDRVTVDGRAYDGFTLRAFLQALAEKAPARPASAQKSSVPTCSLTATSDEAGLTNDEIVRHINALLTSNTTLVAETGDSWFNAMRMTLAGARVELEMQWGHIGWSVPSAFGNAMGSQDRQHVVMVGDGSFQLTAQEVAQMVRYELPVIIFLINNRGYVIEIAIHDGPYNYIKNWDYAGLMEVFNAGEGHGLGLKATTPKELTEAIARAKANTRGPTLIECQIDRTDCTDMLVQWGRKVASTNARKTTLA
notes: coupled test with yeast ADH
Km ([1]; pH 5.0, 25° C., normal Michaelis-Menten kinetics, pH 5.0): 390 µM
Km [1, 4]: 5100 µM

B2: Zymomonas mobilis pyruvate decarboxylase (ZmoPDC), recombinant, wild type, SEQ ID NO:8 (Zymomonas mobilis subsp. mobilis ZM4 = ATCC 31821) (protein)
chain: MSYTVGTYLAERLVQIGLKHHFAVAGDYNLVLLDNLLLNKNMEQVYCCNELNCGFSAEGYARAKGAAAAVVTYSVGALSAFDAIGGAYAENLPVILISGAPNNNDHAAGHVLHHALGKTDYHYQLEMAKNITAAAEAIYTPEEAPAKIDHVIKTALREKKPVYLEIACNIASMPCAAPGPASALFNDEASDEASLNAAVEETLKFIANRDKVAVLVGSKLRAAGAEEAAVKFADALGGAVATMAAAKSFFPEENPHYIGTSWGEVSYPGVEKTMKEADAVIALAPVFNDYSTTGWTDIPDPKKLVLAEPRSVVVNGVRFPSVHLKDYLTRLAQKVSKKTGALDFFKSLNAGELKKAAPADPSAPLVNAEIARQVEALLTPNTTVIAETGDSWFNAQRMKLPNGARVEYEMQWGHIGWSVPAAFGYAVGAPERRNILMVGDGSFQLTAQEVAQMVRLKLPVIIFLINNYGYTIEVMIHDGPYNNIKNWDYAGLMEVFNGNGGYDSGAGKGLKAKTGGELAEAIKVALANTDGPTLIECFIGREDCTEELVKWGKRVAAANSRKPVNKLL
notes: coupled test with yeast ADH
Km ([2]; pH 6.0, normal Michaelis-Menten kinetics, pH 6.0, 25.0 °C): 430 µM
Km [2, 4]: 940 µM

B3: Zymobacter palmae pyruvate decarboxylase (ZpaPDC), recombinant, wild type, SEQ ID NO:2 (Zymobacter palmae) (protein)
chain: MYTVGMYLAERLAQIGLKHHFAVAGDYNLVLLDQLLLNKDMEQVYCCNELNCGFSAEGYARARGAAAAIVTFSVGAISAMNAIGGAYAENLPVILISGSPNTNDYGTGHILHHTIGTTDYNYQLEMVKHVTCARESIVSAEEAPAKIDHVIRTALRERKPAYLEIACNVAGAECVRPGPINSLLRELEVDQTSVTAAVDAAVEWLQDRQNVVMLVGSKLRAAAAEKQAVALADRLGCAVTIMAAEKGFFPEDHPNFRGLYWGEVSSEGAQELVENADAILCLAPVFNDYATVGWNSWPKGDNVMVMDTDRVTFAGQSFEGLSLSTFAAALAEKAPSRPATTQGTQAPVLGIEAAEPNAPLTNDEMTRQIQSLITSDTTLTAETGDSWFNASRMPIPGGARVELEMQWGHIGWSVPSAFGNAVGSPERRHIMMVGDGSFQLTAQEVAQMIRYEIPVIIFLINNRGYVIEIAIHDGPYNYIKNWNYAGLIDVFNDEDGHGLGLKASTGAELEGAIKKALDNRRGPTLIECNIAQDDCTETLIAWGKRVAATNSRKPQA
notes: coupled test with yeast ADH
Km ([3]; pH 6.0, 25° C., normal Michaelis-Menten kinetics, pH 6.0, 25.0 °C): 240 µM
Km ([3]; pH 7.0, normal Michaelis-Menten kinetics, pH 7.0): 710 µM
